In publication PMC4773420 (Nature Communications, 2016):
One block for each binder: values may come before it.

Experiments:
6His-PABPC1(1-190) = 6His-PABPC1(1-190) (human, UniProt P11940 1-190); assay: EMSA; 100 nM RNA; complete shift at 7 pmol protein per 1 pmol RNA; EMSA: 100 nM 5'-fluorescein RNA, native PAGE; EMSA buffer not in the material (deadenylation assays: 20 mM HEPES-KOH pH 8.0, 100 mM KCl, 0.5 mM DTT, 0.1% Igepal)
6His-PABPC1(FL) = 6His-PABPC1(FL) (human, UniProt P11940 1-636); assay: EMSA; 100 nM RNA; complete shift at 7 pmol protein per 1 pmol RNA; multiple PABPC1 molecules bound; EMSA: 100 nM 5'-fluorescein RNA, native PAGE; EMSA buffer not in the material (deadenylation assays: 20 mM HEPES-KOH pH 8.0, 100 mM KCl, 0.5 mM DTT, 0.1% Igepal)
Chain of 6His-PABPC1(FL) (P11940 whole entry): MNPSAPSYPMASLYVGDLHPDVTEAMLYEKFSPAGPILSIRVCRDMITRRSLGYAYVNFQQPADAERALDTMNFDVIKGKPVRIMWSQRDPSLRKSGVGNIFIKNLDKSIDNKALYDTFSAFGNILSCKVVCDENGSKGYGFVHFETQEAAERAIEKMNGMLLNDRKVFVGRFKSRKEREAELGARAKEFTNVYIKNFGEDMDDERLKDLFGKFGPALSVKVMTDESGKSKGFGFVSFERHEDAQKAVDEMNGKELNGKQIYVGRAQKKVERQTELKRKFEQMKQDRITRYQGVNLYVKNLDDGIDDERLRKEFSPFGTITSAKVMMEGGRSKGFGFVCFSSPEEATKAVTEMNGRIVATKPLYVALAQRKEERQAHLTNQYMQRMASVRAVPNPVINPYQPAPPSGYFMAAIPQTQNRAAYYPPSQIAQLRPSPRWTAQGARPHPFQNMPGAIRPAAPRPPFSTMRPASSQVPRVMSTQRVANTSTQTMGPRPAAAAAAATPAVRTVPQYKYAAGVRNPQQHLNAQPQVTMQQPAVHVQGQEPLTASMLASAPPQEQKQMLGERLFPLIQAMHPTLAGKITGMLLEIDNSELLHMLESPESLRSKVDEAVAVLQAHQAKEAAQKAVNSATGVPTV

6His-PABPC1(1–190) = molecular target: T1, 6His-PABPC1(1–190) (human, UniProt P11940 1-190); assay: AUC; analytical ultracentrifugation of BTG2(APRO) (GST removed) and 6His-PABPC1(1–190), both purified to homogeneity; no RNA (Supplementary Fig. 2); conditions: both partners purified
T1 construct: PABPC1, human, RRM domains 1 and 2, amino acids 1-190; also called 6His-tagged PABPC1 RRM domains 1 and 2; first two RRMs of PABPC1; source: E. coli BL21-CodonPlus; co-expressed, in lysate (pull-down); purified (HisTrap FF crude, Superdex 75)
T1 sequence (P11940 1-190): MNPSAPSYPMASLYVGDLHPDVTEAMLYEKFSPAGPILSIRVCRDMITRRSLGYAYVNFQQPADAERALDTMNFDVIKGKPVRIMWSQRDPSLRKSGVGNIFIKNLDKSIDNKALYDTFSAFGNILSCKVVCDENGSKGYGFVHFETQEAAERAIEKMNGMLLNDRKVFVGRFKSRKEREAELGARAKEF

Chain of 6His-PABPC1(1-190) (P11940 1-190): as above

B1: 5'Fluo-poly(A)75 (ssRNA)
RNA: AAAAAAAAAAAAAAAAAAAAAAAAAAAAAAAAAAAAAAAAAAAAAAAAAAAAAAAAAAAAAAAAAAAAAAAAAAA
binding result (6His-PABPC1(1-190)): binds
binding result (6His-PABPC1(FL)): binds

Kd (6His-PABPC1(1–190)): ~5 µM
stoichiometry N (6His-PABPC1(1–190)): 1
B2: BTG2(APRO) (domain or fragment, human, UniProt P78543 1-126, looked up)
chain: MSHGKGTDMLPEIAAAVGFLSSLLRTRGCVSEQRLKVFSGALQEALTEHYKHHWFPEKPSKGSGYRCIRINHKMDPIISRVASQIGLSQPQLHQLLPSELTLWVDPYEVSYRIGEDGSICVLYEEA
notes: BTG2, human, APRO domain; also called BTG2 APRO domain, GST removed; source: E. coli BL21-CodonPlus, purified (GSTrap FF, thrombin cleavage, Superdex 75)
